What was measured:
[1] = system: MDA-MB-231/Luc-induced osteolytic metastasis; assay: Real-time NIR fluorescence and PA imaging of osteolytic metastasis; type: in vivo, BALB/c nude mice; settings: i.v. 50 μM, 200 μL; imaged 0-24 h; n = 3
Description: page 5: PS. RAW 264.7 cells and BMMs were maintained in an atmosphere of 5% CO2 and 95% humidified air at 37 °C. The medium was changed every day. Cell cytotoxicity assay. MDA-MB-231/Luc and RAW 264.7 cells were seeded in 96-well plates (5×10^3 cells per well) for 24 h and then incubated with CTSK-APPA or CTSK-APP (5, 10, 20, 50 μM) or saline for 24 h. The medium was removed and cells were incubated with CCK-8 (0.5 mg/mL) for another 1 h. The absorbance of the mixture at 450 nm was measured by using a microplate reader. Cell viability was expressed by the ratio of the absorbance of the cells incubated with the probes to that of the cells incubated with culture medium only. In vitro osteoclast differentiation. Bone marrow-derived macrophages were isolated from the femurs and tibias of 4-week-old C57BL/6J mice and cultured in a complete medium containing M-CSF (30 ng/mL) for 4 days. […] Fluorescence images were captured by using the IVIS Spectrum imaging system with excitation at 660 ± 10 nm and emission at 710 ± 10 nm. […] The bone marrow toxicity of CTSK-APPA and CTSK-APP was assessed by blood analyses in mice. […] The red blood count (RBC) and white blood count (WBC) were further measured. […] The supernatants containing excreted probes were quantified by using a UV-vis absorption spectrometer. […]

[2] = molecular target: T1, cathepsin K (CTSK) (Homo sapiens, UniProt P43235); assay: Kinetic assay (Michaelis-Menten) of probe cleavage by CTSK; type: biochemical
T1 sequence (P43235 115-329): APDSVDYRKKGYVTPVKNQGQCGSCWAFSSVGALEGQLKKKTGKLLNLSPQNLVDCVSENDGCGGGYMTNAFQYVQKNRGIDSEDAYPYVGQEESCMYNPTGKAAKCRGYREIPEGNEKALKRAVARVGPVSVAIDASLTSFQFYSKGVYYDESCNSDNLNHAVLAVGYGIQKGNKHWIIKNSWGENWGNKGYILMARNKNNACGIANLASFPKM
Description: In vitro analysis of cathepsin K (CTSK) activation, selectivity, and sensitivity studies.
Probe CTSK-APPA, D-CTSK-APPA, or CTSK-APP (10 μM) was incubated with CTSK in MES buffer (50 mM, pH 6.0) containing 0.1% DMSO, 2 mM ethylene diamine tetraacetic acid (EDTA), 4 mM dithiothreitol (DTT) and 0.15% chondroitin sulfate (CS) at 37 °C for 1 h. After incubation at the indicated time, UV-Vis spectra, fluorescence spectra, fluorescence images, and PA images of the solutions were recorded. […]
PA images were captured by using a MSOT scanner with
Kinetic assay. Different concentrations of CTSK-APPA or CTSK-APP (1, 2, 5, 10, 20, or 50 μM) were incubated with CTSK (100 ng/mL) in MES buffer containing 0.1% DMSO, 2mM EDTA, 4mM DTT, and 0.15% CS at 37 °C for 5 min. Fluorescence intensities of solution were measured for quantification analyses by a microplate reader (BioTek, Synergy 2) with excitation at 690 nm and emission at 720 nm. The kinetic parameters were calculated according to the Michaelis-Menten equation shown below: V = Vmax×[S]/(Km + [S]), where V is initial velocity, and [S] is substrate concentration.
(1 picture or pasted object on this page, not shown here)

[3] = Hydroxyapatite (HA) adsorption assay (in vitro bone binding); settings: probe 10 μM, HA 10 mg/mL, 37 °C, fluorescence of precipitate
Description: In Vitro bone-binding and CTSK activation assay. Hydroxyapatite (HA) was used as a substitute for bone in vitro to evaluate the bone-binding ability of CTSK-APPA and CTSK-APP. CTSK-APPA or CTSK-APP (10 μM) was mildly stirred with HA (10 mg/mL) at 37 °C for different times (0, 10, 30, 60, and 120 min). The mixture was centrifugated at 4000 g for 5 min and then washed with a 10-fold excess of PBS (1×) three times. The efficiency of HA binding was determined from the fluorescence intensities of the precipitation according to the equation: (F – Fblank)/(F0 – Fblank)*100%, where F represents the fluorescence intensity of the precipitation incubated with HA for a determined time, and Fblank represents the blank fluorescence intensity. […]

- HA-binding efficiency after 30 min [3]: approximately 96%
Substance: Cbz‐Leu‐Arg‐OH [CTSK-APPA]
- time of maximum NIR fluorescence and PA signal post-injection [1]: 4 h
- catalytic efficiency (kcat/Km) ([2]; from Km and kcat): 890000 M⁻¹ s⁻¹
- Km ([2]; probe 1-50 μM, CTSK 100 ng/mL, MES buffer, 37 °C, 5 min, Ex 690/Em 720 nm, n = 3, read-out: Michaelis–Menten constant (Km)): 22.9 µM
- catalytic rate constant (kcat) ([2]; probe 1-50 μM, CTSK 100 ng/mL, MES buffer, 37 °C, 5 min, n = 3): 20.4 s⁻¹

From paper PMC10460880, “Cathepsin K‐Activated Probe for Fluoro‐Photoacoustic Imaging of Early Osteolytic Metastasis” (Advanced Science, 2023)
